Laboratory results: paper PMC6776994

Key:
[1] = target: CCR5 chemokine receptor (human) (UniProt P51681); experiment: plasmonic metal-enhanced fluorescence imaging of cells
[2] = target: CCR5 chemokine receptor (human) (UniProt P51681); experiment: flow cytometry on cells

Chain of UniProt P51681 (P51681 whole entry): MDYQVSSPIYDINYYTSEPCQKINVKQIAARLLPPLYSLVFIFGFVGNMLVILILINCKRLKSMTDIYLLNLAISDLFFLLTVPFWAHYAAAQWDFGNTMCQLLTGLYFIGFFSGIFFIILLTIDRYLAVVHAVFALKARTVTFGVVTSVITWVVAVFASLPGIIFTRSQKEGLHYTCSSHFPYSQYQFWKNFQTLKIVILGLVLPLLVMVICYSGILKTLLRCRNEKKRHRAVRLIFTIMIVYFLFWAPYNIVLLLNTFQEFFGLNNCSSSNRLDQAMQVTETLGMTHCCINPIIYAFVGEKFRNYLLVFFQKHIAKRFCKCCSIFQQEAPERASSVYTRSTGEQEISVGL

For “full length single chain (FLSC) IgG1 (Fc fusion)”, the fold increase of CCR5 binding on MVC-treated against untreated cells [1] was 1.65 fold and the reduction in CCR5 intensity (staining by mAb 45531) after FLSC IgG1 [2] was 10%.
